Source: patent US20150004174A1 (Amgen, published 2015)

How the values were obtained:
[1] = target: human PCSK9 (proprotein convertase subtilisin kexin type 9), wild type (human, UniProt Q8NBP7 31-692, biotinylated in the ELISA formats (site not stated)); assay: cell-based or functional assay
[2] = target: human PCSK9 D374Y mutant (human, UniProt Q8NBP7 31-692, biotinylated in the ELISA formats (site not stated)); assay: cell-based or functional assay
[3] = target: T1, mouse PCSK9, 8xHis tagged (mouse, UniProt Q80W65 35-694); assay: KinExA solution equilibrium
T1 construct: The biotinylated mouse PCSK9 of the hybridoma cross-reactivity screen is entered under this molecule; also called mPCSK9-8xHIS; mPCSK9; not shown: 8xHis tag named only in the label
T1 sequence (Q80W65 35-694): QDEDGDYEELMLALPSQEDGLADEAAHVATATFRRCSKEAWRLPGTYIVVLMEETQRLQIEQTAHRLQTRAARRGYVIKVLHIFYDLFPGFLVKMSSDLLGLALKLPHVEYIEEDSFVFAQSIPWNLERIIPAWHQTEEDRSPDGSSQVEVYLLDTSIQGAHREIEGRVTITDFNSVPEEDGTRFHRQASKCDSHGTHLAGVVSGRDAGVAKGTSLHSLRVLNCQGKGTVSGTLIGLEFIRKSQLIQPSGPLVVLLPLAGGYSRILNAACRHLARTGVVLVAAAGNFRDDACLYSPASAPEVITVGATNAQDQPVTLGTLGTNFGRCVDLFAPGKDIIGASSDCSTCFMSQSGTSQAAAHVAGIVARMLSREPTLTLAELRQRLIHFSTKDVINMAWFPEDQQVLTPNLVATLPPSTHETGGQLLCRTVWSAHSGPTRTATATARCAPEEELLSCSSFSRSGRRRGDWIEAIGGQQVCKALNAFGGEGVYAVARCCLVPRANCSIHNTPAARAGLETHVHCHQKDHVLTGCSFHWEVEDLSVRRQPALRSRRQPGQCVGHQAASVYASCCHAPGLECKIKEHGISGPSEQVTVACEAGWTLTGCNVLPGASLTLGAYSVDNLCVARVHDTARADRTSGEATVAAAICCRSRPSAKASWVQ

Binder	EC50, block of PCSK9-mediated decrease of BODIPY-LDL uptake in HepG2 cells [1] [nM]	EC50, block of PCSK9-mediated decrease of BODIPY-LDL uptake in HepG2 cells [2] [nM]	fold lower affinity to mouse PCSK9 than to human and cyno PCSK9 [3] [fold]
11F1 anti-PCSK9 antibody (antibody, V domains shown) VH: EVQLVESGGGLVQPGGSLRLSCAASGFTFSNYWMSWVRQAPGKGLEWVASIKQDGSEKYYVDSVKGRFAISRDNAKNSLFLQMNSLRAEDTAVYYCARDLVLMVYDIDYYYYGMDVWGQGTTVTVSS VL: not shown	124	35.3	–
16F12 human IgG4 (antibody, V domains shown, also called 16F12.1; 16F12, anti-PCSK9 huIgG4) VH: QVHLVESGGGVVQPGRSLRLSCAASGFTFNSFGMHWVRQAPGKGLEWVALIWSDGSDEYYADSVKGRFTISRDNSKNTLYLQMNSLRAEDTAVYYCARAIAALYYYYGMDVWGQGTTVTVSS VL: QSVLTQPPSVSAAPGQKVTISCSGSSSNIGNNFVSWYQQLPGTAPKLLIYDYNKRPSGIPDRFSGSKSGTSATLGITGLQTGDEADYYCGTWDSSLSAYVFGTGTRVTVLQ	–	–	10 to 250
